Consider 1 molecule from patent US20220033462A1 (ALLOGENE THERAPEUTICS, published 2022).

For the assay, the target named is T1, recombinant human CD19-mouse IgG Fc fusion protein (human; mouse, UniProt P15391 20-291, limits assumed).
T1 construct: Staining reagent; not shown: mouse IgG Fc
T1 sequence (looked up): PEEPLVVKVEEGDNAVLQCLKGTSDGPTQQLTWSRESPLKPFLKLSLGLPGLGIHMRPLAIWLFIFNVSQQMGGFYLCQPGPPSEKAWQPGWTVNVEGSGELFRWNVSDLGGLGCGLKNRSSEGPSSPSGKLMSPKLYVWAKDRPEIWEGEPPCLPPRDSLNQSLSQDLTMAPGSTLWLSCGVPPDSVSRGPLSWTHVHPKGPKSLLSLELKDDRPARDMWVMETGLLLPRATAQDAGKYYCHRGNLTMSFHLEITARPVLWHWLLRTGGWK
The experiment in a line: flow cytometry, NFAT-/NFkB-luciferase reporter Jurkat cells expressing P-CAR2 (FIGS. 6-9). A general note: A flow cytometer gives signals particle by particle.

B1: P-CAR2 (SEQ ID No 2020) (other)
chain: EVKLQQSGAELVRPGSSVKISCKASGYAFSSYWMNWVKQRPGQGLEWIGQIYPGDGDTNYNGKFKGQATLTADKSSSTAYMQLSGLTSEDSAVYFCARKTISSVVDFYFDYWGQGTTVTVSSGGGGSGGGGSGGGGSDIELTQSPKFMSTSVGDRVSVTCKASQNVGTNVAWYQQKPGQSPKPLIYSATYRNSGVPDRFTGSGSGTDFTLTITNVQSKDLADYFCQQYNRYPYTSGGGTKLEIKRAAAIEVMYPPPYLDNEKSNGTIIHVKGKHLCPSPLFPGPSKPFWVLVVVGGVLACYSLLVTVAFIIFWVRSKRSRLLHSDYMNMTPRRPGPTRKHYQPYAPPRDFAAYRSRVKFSRSADAPAYQQGQNQLYNELNLGRREEYDVLDKRRGRDPEMGGKPRRKNPQEGLYNELQKDKMAEAYSEIGMKGERRRGKGHDGLYQGLSTATKDTYDALHMQALPPR
notes: Chimeric antigen receptor on the surface of transduced reporter Jurkat cells; also called positive signaling CAR with scFv from anti-CD19 antibody SJ25C1
In the case of B1, the binding result is given as “binds”.
